Reference: patent publication US20160274129
Changes are numbered by the printed parent chain. Several values for one entry are separate records, joined by “and”; a condition that tells them apart may be missing. Identical values can stand only once.

B1: CFP-T7-H21 (protein)
chain: MTSNRADTRVIVVGGGGTIGSSTALHLVRSGYAPANITVLDTFEIPSAQSAGHDLNKIMGIDLRNKVDLQMSLEARQMWKEDELFQPFFHNTGRMDCEHTPEGIEKLKKLYQRLHDAGAGLEKTHAWLDNEDEILSKMPLLQRDQIQGWKAIWSQDGGWLAAAKAINAIGQFLKERGVKFGFGGAGSFKQPLFDDEGTTCIGVETADGTKYYADKVVLAAGAWSPTLVDLEDQCCSKAWVYAHIQLTPEEAAEYKGVPVVYNGEFGFFFEPDEFGVIKVCDEFPGFSRFKEHQPYGAPSPKRISVPRSHAKHPTDTYPDASEVSIKKAIATFLPRFQDKELFNRALCWCTDTADAALLMCEHPKWKNFILATGDSGHSFKILPNVGKYVVELIEGRLPEEMAYQWRWRPGGDALKSRRAAPPKDLADMPGWKHDPKL
B2: Cc95FX (protein)
chain: MAPSRANTSVIVVGGGGTIGSSTALHLVRSGYTPSNITVLDAYPIPSSQSAGNDLNKIMGIRLRNKVDLQLSLEARQMWREDDLFKEYFHNTGRLDCAHGEEGLADLRQAYQALLDANAGLEETTEWLDSEDEILKKMPLLSRDQIKGWKAVYSQDGGWLAAAKAINAIGEYLRAQGVKFGFGGAGSFKQPLLAEGVCIGVETVDGTRYYADKVVLAAGAWSPTLVELHEQCVSKAWVYGHIQLTPEEAAEYKNSPVVYNGDVGFFFEPNEHGVIKVCDEFPGFTRFKMHQPFGAKAPKRISVPRSHAKHPTDTIPDASEKSIRKAIATFLPKFTEKELFNRHLCWCTDTADAALLICEHPEWKNFVLATGDSGHSFKLLPNIGKHVVELLEGTLADDLAHAWRWRPGSGDALKSRRSAPAKDLADMPGWKHDDVVKSKL
B3: CFP-T7-H3 (protein)
chain: B1 chain with D62A, K106D, L110F, R113A
B4: Cc95FX-62D/63H/106K/110L/113K/353S (protein)
chain: B2 chain with R62D, L63H, D106K, A110L, A113K, A353S
B5: CFP-T7-H4 (protein)
chain: B1 chain with D62A, K106D, L110Y, R113A
B6: CFP-T7-H2-62N (protein)
chain: B1 chain with D62N, K106D, R113A
B7: CFP-T7-H6 (protein)
chain: B1 chain with K106D, R113A
B8: CFP-T7-H2-62Q (protein)
chain: B1 chain with D62Q, K106D, R113A
B9: CFP-T7-H2-62E (protein)
chain: B1 chain with D62E, K106D, R113A
B10: CFP-T7-H7 (protein)
chain: B1 chain with R64A, K106D, R113A
B11: CFP-T7-H8 (protein)
chain: B1 chain with R64E, K106D, R113A
B12: CFP-T7-H9 (protein)
chain: B1 chain with R64H, K106D, R113A
B13: CFP-T7-H10 (protein)
chain: B1 chain with K106A, R113A
B14: CFP-T7-H11 (protein)
chain: B1 chain with R113A
B15: CFP-T7-H12 (protein)
chain: B1 chain with K106R, R113A
B16: CFP-T7-H13 (protein)
chain: B1 chain with K106D, R113K
B17: CFP-T7-H14 (protein)
chain: B1 chain with K106D
B18: CFP-T7-H1 (protein)
chain: B1 chain with D62A, K106D, L110Q, R113A
B19: CFP-T7-H24 (protein)
chain: B1 chain with L63A, R113K
B20: CFP-T7-H25 (protein)
chain: B1 chain with L63D, R113K
B21: CFP-T7-H26 (protein)
chain: B1 chain with L63H, R113K
B22: CFP-T7-H27 (protein)
chain: B1 chain with L63K, R113K
B23: CFP-T7-H28 (protein)
chain: B1 chain with L63H, E102K, R113K
B24: CFP-T7-H29 (protein)
chain: B1 chain with L63H, R113K, A419K
B25: FAOAo2 (protein)
chain: MTVTKSSSILIIGAGTWGASTALHLGRRGYTNVTVLDPYTVPSAISAGNDVNKIISSGQYSNKKDEIEVNEILAEEAFKGWTTDPLFKPYYHDTGVVMSACSSAGLDRLGIRVRPEEEPDVSEVTKPEHFRQLAPAVLKGNFPGWRGYHIRSNAGWAHARNALVAAIREAEKLGVKFVTGTQGRVITLIFENNDVKGAVTADGKIWRAEQTVLCAGANAAQFLDFKDQLRPTAWTLAHIRLKPEERALYKNLPVIFNIEKGFFFEPDEERGEIKICDEHPGYTNMVKSADGHLTSLPFEKTQIPKESEARVRALLSETMPQLADRPFSFARVCWCADTANREFIIDRHPEHPSLVLGCGASGRGFKYLPSIGNLIVDAIEDKVPEKVHKLTRWSPDIAVDRKWRDTLGRFGGPNRVMDFHDVKEWTNVQNKDTAKL

Experiments:
[1] = target: T1, α-fructosyl-valyl-histidyl-leucyl-threonyl-proryl-glutamic acid
T1 chain: VHLTPE

[2] = target: T2, α-fructosyl-valyl-histidine
T2 chain: VH

Row | Protein | αF6P oxidation activity (crude enzyme; αFVH oxidation activity = 100) (relative (αFVH = 100)) [1] | αF6P/αFV [1] | αF6P/αFVH [1] | αF6P oxidation activity ratio (crude enzyme; CFP-T7-H6 = 100) (relative (CFP-T7-H6 = 100)) [1] | further results
1 | B1 | 20.8 | 0.0377 and 0.0372 | 0.196 and 0.208 | – | Specific activity (U/mg), 1 mM αF6P, purified enzyme [1]: 0.795 U/mg; Specific activity (U/mg), 1 mM αFVH, purified enzyme [2]: 4.05 U/mg
2 | B2 | 0 | 0 | 0 | – | –
3 | B3 | 0.0298 | 0.000205 | 0.000298 | – | –
4 | B4 | 237 | 0.0144 | 2.37 | – | –
5 | B5 | 0.0341 | 0.000319 | 0.000341 | – | –
6 | B6 | – | – | – | – | αF6P oxidation activity ratio (crude enzyme; CFP-T7-H2 = 100) (relative (CFP-T7-H2 = 100)) [1]: 120
7 | B7 | 3 | 0.00347 | 0.03 | – | αF6P oxidation activity ratio (crude enzyme; CFP-T7-H2 = 100) (relative (CFP-T7-H2 = 100)) [1]: 513
8 | B8 | – | – | – | – | αF6P oxidation activity ratio (crude enzyme; CFP-T7-H2 = 100) (relative (CFP-T7-H2 = 100)) [1]: 11
9 | B9 | – | – | – | – | αF6P oxidation activity ratio (crude enzyme; CFP-T7-H2 = 100) (relative (CFP-T7-H2 = 100)) [1]: 21
10 | B10 | – | – | – | 17 | –
11 | B11 | – | – | – | 2 | –
12 | B12 | – | – | – | 44 | –
13 | B13 | – | – | – | 301 | –
14 | B14 | 12.5 | 0.0245 | 0.125 | 951 | –
15 | B15 | 11.6 | 0.0165 | 0.116 | 636 | –
16 | B16 | 4.33 | 0.00579 | 0.0433 | 207 | –
17 | B17 | 4.22 | 0.00519 | 0.0422 | 183 | –
18 | B18 | 0.0316 | 0.000222 | 0.000316 | – | –
19 | B19 | 86.7 | 0.0461 | 0.867 | – | αF6P oxidation activity ratio (crude enzyme; CFP-T7-H20 = 100) (relative (CFP-T7-H20 = 100)) [1]: 123
20 | B20 | – | – | – | – | αF6P oxidation activity ratio (crude enzyme; CFP-T7-H20 = 100) (relative (CFP-T7-H20 = 100)) [1]: 24
21 | B21 | 84.3 | 0.0773 | 0.843 | – | αF6P oxidation activity ratio (crude enzyme; CFP-T7-H20 = 100) (relative (CFP-T7-H20 = 100)) [1]: 142
22 | B22 | – | – | – | – | αF6P oxidation activity ratio (crude enzyme; CFP-T7-H20 = 100) (relative (CFP-T7-H20 = 100)) [1]: 7
23 | B23 | 134 | 0.124 | 1.34 | – | αF6P oxidation activity ratio (crude enzyme; CFP-T7-H26 = 100) (relative (CFP-T7-H26 = 100)) [1]: 117
24 | B24 | 111 | 0.111 | 1.11 | – | αF6P oxidation activity ratio (crude enzyme; CFP-T7-H26 = 100) (relative (CFP-T7-H26 = 100)) [1]: 102
25 | B25 | – | – | – | – | Specific activity (U/mg), 1 mM αF6P, purified enzyme [1]: 0.0022 U/mg
